# Results reported in patent US20060140858A1, “Drug pre-targeting by means of bi-specific antibodies and hapten constructs comprising a carrier peptide and the active agent(s)” (Immunomedics, Inc., priority 2002, published 2006).
# Where a SMILES comes first, the peptide text is derived from it. The star is where a group is joined. DTPA = O=C(O)CN(CCN(CC(=O)O)CC(=O)O)CCN(CC(=O)O)CC(=O)*
# Experiments:
# [1] = Pretargeting: 125-I-hMN-14 × 734 bsAb, 48 h later 111-In-indium-IMP-156, biodistribution; type: in vivo, nude mice; settings: female, nude (Taconic NCRNU), mouse, 3 h post peptide
# GW-39 tumor xenografts [2] = assay: as above; type: in vivo, nude mice; settings: 3 h post peptide
# [3] = Control group: clearance of 111-In-indium-IMP-156 alone; type: in vivo, nude mice; settings: female, NCRNU nude, mouse, total radioactivity
# GW-39 tumor xenografts [4] = assay: as above; type: in vivo, nude mice; settings: 3 h
# [5] = Pretargeting: I-125 F6 × 734-F(ab′)2, 72 h later In-111-IMP-225, biodistribution; settings: female, mouse, in vivo, 10 uCi, total radioactivity, % ID/g tissue
smiles,measurement,setting,value
"CC(=O)N[C@@H](Cc1ccccc1)C(=O)N[C@@H](CCCCNC(=O)CN(CCN(CCN(CC(=O)O)CC(=O)O)CC(=O)O)CC(=O)O)C(=O)N[C@@H](Cc1ccc(O)cc1)C(=O)N[C@@H](CCCCNC(=O)CN(CCN(CCN(CC(=O)O)CC(=O)O)CC(=O)O)CC(=O)O)C(N)=O [IMP 156, Ac-Phe-Lys(DTPA)-Tyr-Lys(DTPA)-NH2] (Ac-FK(DTPA)YK(DTPA)-NH2)",tissue uptake at 3 h,[1]; Blood,0.7 ± 0.2 %ID/g
same,tissue uptake at 3 h,[1]; Kidney,1.9 ± 0.5 %ID/g
same,tissue uptake at 3 h,[1]; Lungs,0.4 ± 0.1 %ID/g
same,tissue uptake at 3 h,[1]; tumor,52 ± 1.9 %ID/g
same,T/NT,GW-39 tumor xenografts [2]; Blood,7.6 ± 1.5
same,T/NT,GW-39 tumor xenografts [2]; Kidney,2.6 ± 0.5
same,T/NT,GW-39 tumor xenografts [2]; Liver,10.6 ± 3.5
same,T/NT,GW-39 tumor xenografts [2]; Lungs,12 ± 2
same,T/NT,GW-39 tumor xenografts [2]; Spleen,12 ± 6
same,T/NT,GW-39 tumor xenografts [2]; tumor,1
same,tissue uptake at 3 h,[3]; Blood,0.05 ± 0.01 %ID/g
same,tissue uptake at 3 h,[3]; Kidney,0.93 ± 0.13 %ID/g
same,tissue uptake at 3 h,[3]; Liver,0.42 ± 0.1 %ID/g
same,tissue uptake at 3 h,[3]; Lungs,0.04 ± 0.01 %ID/g
same,tissue uptake at 3 h,[3]; Spleen,0.28 ± 0.09 %ID/g
same,tissue uptake at 3 h,[3]; Tumor,0.14 ± 0.02 %ID/g
same,T/NT,GW-39 tumor xenografts [4]; Blood,3.1 ± 0.7
same,T/NT,GW-39 tumor xenografts [4]; Kidney,0.2 ± 0.03
same,T/NT,GW-39 tumor xenografts [4]; Liver,0.3 ± 0.1
same,T/NT,GW-39 tumor xenografts [4]; Lungs,3.5 ± 0.7
same,T/NT,GW-39 tumor xenografts [4]; Spleen,0.5 ± 0.1
same,T/NT,GW-39 tumor xenografts [4]; Tumor,1
COc1cccc2c1C(=O)c1c(O)c3c(c(O)c1C2=O)C[C@@](O)(C(=O)CO)C[C@@H]3O[C@H]1C[C@H](NC(=O)CSC[C@H](NC(C)=O)C(=O)N[C@@H](CCCCNC(=O)CN(CCN(CCN(CC(=O)O)CC(=O)O)CC(=O)O)CC(=O)O)C(=O)N[C@@H](Cc2ccc(O)cc2)C(=O)N[C@@H](CCCCNC(=O)CN(CCN(CCN(CC(=O)O)CC(=O)O)CC(=O)O)CC(=O)O)C(N)=O)[C@H](O)[C@H](C)O1 [IMP 225],tissue uptake at 1 h,"[5]; NCRNU nude, Spleen, 1 h",1.6 ± 2.4 %ID/g
same,tissue uptake at 1 h,"[5]; nude (Taconic NCRNU), Blood, 1 h",2 ± 0.4 %ID/g
same,tissue uptake at 4 h,"[5]; nude (Taconic NCRNU), Blood, 4 h",1.3 ± 0.2 %ID/g
same,tissue uptake at 24 h,"[5]; nude (Taconic NCRNU), Blood, 24 h",0.4 ± 0.2 %ID/g
same,tissue uptake at 1 h,"[5]; nude (Taconic NCRNU), GW-39, 1 h",14.6 ± 14 %ID/g
same,tissue uptake at 4 h,"[5]; nude (Taconic NCRNU), GW-39, 4 h",16.5 ± 4.8 %ID/g
same,tissue uptake at 24 h,"[5]; nude (Taconic NCRNU), GW-39, 24 h",10.1 ± 2.3 %ID/g
same,tissue uptake at 1 h,"[5]; nude (Taconic NCRNU), Kidney, 1 h",3.8 ± 0.9 %ID/g
same,tissue uptake at 4 h,"[5]; nude (Taconic NCRNU), Kidney, 4 h",3.8 ± 0.4 %ID/g
same,tissue uptake at 24 h,"[5]; nude (Taconic NCRNU), Kidney, 24 h",1.7 ± 0.3 %ID/g
same,tissue uptake at 1 h,"[5]; nude (Taconic NCRNU), Large Int., 1 h",0.2 %ID/g
same,tissue uptake at 4 h,"[5]; nude (Taconic NCRNU), Large Int., 4 h",0.3 ± 0.1 %ID/g
same,tissue uptake at 24 h,"[5]; nude (Taconic NCRNU), Large Int., 24 h",0.1 %ID/g
same,tissue uptake at 1 h,"[5]; nude (Taconic NCRNU), Liver, 1 h",0.4 ± 0.2 %ID/g
same,tissue uptake at 4 h,"[5]; nude (Taconic NCRNU), Liver, 4 h",0.4 ± 0.1 %ID/g
same,tissue uptake at 24 h,"[5]; nude (Taconic NCRNU), Liver, 24 h",0.3 ± 0.1 %ID/g
same,tissue uptake at 1 h,"[5]; nude (Taconic NCRNU), Lungs, 1 h",0.8 ± 0.4 %ID/g
same,tissue uptake at 4 h,"[5]; nude (Taconic NCRNU), Lungs, 4 h",0.6 ± 0.1 %ID/g
same,tissue uptake at 24 h,"[5]; nude (Taconic NCRNU), Lungs, 24 h",0.2 ± 0.1 %ID/g
same,tissue uptake at 1 h,"[5]; nude (Taconic NCRNU), Muscle, 1 h",0.3 ± 0.2 %ID/g
same,tissue uptake at 4 h,"[5]; nude (Taconic NCRNU), Muscle, 4 h",0.2 %ID/g
same,tissue uptake at 24 h,"[5]; nude (Taconic NCRNU), Muscle, 24 h",0.1 %ID/g
same,tissue uptake at 1 h,"[5]; nude (Taconic NCRNU), Small Int., 1 h",0.4 ± 0.1 %ID/g
same,tissue uptake at 4 h,"[5]; nude (Taconic NCRNU), Small Int., 4 h",0.3 ± 0.2 %ID/g
same,tissue uptake at 24 h,"[5]; nude (Taconic NCRNU), Small Int., 24 h",0.1 %ID/g
same,tissue uptake at 4 h,"[5]; nude (Taconic NCRNU), Spleen, 4 h",0.4 ± 0.1 %ID/g
same,tissue uptake at 24 h,"[5]; nude (Taconic NCRNU), Spleen, 24 h",0.4 ± 0.1 %ID/g
same,tissue uptake at 1 h,"[5]; nude (Taconic NCRNU), Stomach, 1 h",1.1 ± 0.9 %ID/g
same,tissue uptake at 4 h,"[5]; nude (Taconic NCRNU), Stomach, 4 h",0.4 ± 0.2 %ID/g
same,tissue uptake at 24 h,"[5]; nude (Taconic NCRNU), Stomach, 24 h",0.1 %ID/g
same,tissue uptake at 1 h,"[5]; nude (Taconic NCRNU), Tail, 1 h",1.2 ± 0.1 %ID/g
same,tissue uptake at 4 h,"[5]; nude (Taconic NCRNU), Tail, 4 h",0.8 ± 0.2 %ID/g
same,tissue uptake at 24 h,"[5]; nude (Taconic NCRNU), Tail, 24 h",0.5 ± 0.7 %ID/g
